Measured values as given in patent publication US12630600B2 (MEDIMMUNE LIMITED, priority 2022, dated 2026).
Starred links: 1 amine or outer side, 2 acyl side, 3 side chain; linkers in the order of their positions; H or OH if unused. Non-standard residues stand in square brackets, D forms with d. Groups on a side chain read outwards from the residue. No end group written: not given here. *: point of attachment. C18 diacid = O=C(O)CCCCCCCCCCCCCCCCC(=O)*; γGlu = O=C(O)[C@H](CCC(=O)[*:2])N[*:1]; αMeF = C[C@](N)(Cc1ccccc1)C(=O)O; AEEA = NCCOCCOCC(=O)O; Aib = CC(C)(N)C(=O)O

Columns and labels:
Test in all cases: cell-based or functional assay
human glucagon receptor = human glucagon receptor (human, UniProt P47871)
human GLP-1 receptor [1] = target: human GLP-1 receptor (human, UniProt P43220)
human GLP-1 receptor [2] = target: human GLP-1 receptor (human, UniProt P43220); remark: listed apart in the source

| cAMP production, hGluc-R EC50 (pM) (human glucagon receptor) | cAMP production, hGLP-1R EC50 (pM) (human GLP-1 receptor [1]) | hGLP-1R EC50 (pM) (human GLP-1 receptor [2]) | Binder |
| --- | --- | --- | --- |
| 1630 | 24.6 |  | H[Aib]QGTFTSDVSK[αMeF]LDSK([AEEA-AEEA-γGlu-C18 diacid])RAQDFVRWLASR-OH (N-terminus assumed; SMILES CC(C)C[C@H](NC(=O)[C@H](Cc1c[nH]c2ccccc12)NC(=O)[C@H](CCCNC(=N)N)NC(=O)[C@@H](NC(=O)[C@H](Cc1ccccc1)NC(=O)[C@H](CC(=O)O)NC(=O)[C@H](CCC(N)=O)NC(=O)[C@H](C)NC(=O)[C@H](CCCNC(=N)N)NC(=O)[C@H](CCCCNC(=O)COCCOCCNC(=O)COCCOCCNC(=O)CC[C@H](NC(=O)CCCCCCCCCCCCCCCCC(=O)O)C(=O)O)NC(=O)[C@H](CO)NC(=O)[C@H](CC(=O)O)NC(=O)[C@H](CC(C)C)NC(=O)[C@](C)(Cc1ccccc1)NC(=O)[C@H](CCCCN)NC(=O)[C@H](CO)NC(=O)[C@@H](NC(=O)[C@H](CC(=O)O)NC(=O)[C@H](CO)NC(=O)[C@@H](NC(=O)[C@H](Cc1ccccc1)NC(=O)[C@@H](NC(=O)CNC(=O)[C@H](CCC(N)=O)NC(=O)C(C)(C)NC(=O)[C@@H](N)Cc1c[nH]cn1)[C@@H](C)O)[C@@H](C)O)C(C)C)C(C)C)C(=O)N[C@@H](C)C(=O)N[C@@H](CO)C(=O)N[C@@H](CCCNC(=N)N)C(=O)O) [Peptide 146] |
| 568 | 40.2 |  | H[Aib]QGTFTSDVSK[αMeF]LDSK([AEEA-AEEA-γGlu-C18 diacid])RAQDFVRWIAE[Aib]G-OH (N-terminus assumed; SMILES CC[C@H](C)[C@H](NC(=O)[C@H](Cc1c[nH]c2ccccc12)NC(=O)[C@H](CCCNC(=N)N)NC(=O)[C@@H](NC(=O)[C@H](Cc1ccccc1)NC(=O)[C@H](CC(=O)O)NC(=O)[C@H](CCC(N)=O)NC(=O)[C@H](C)NC(=O)[C@H](CCCNC(=N)N)NC(=O)[C@H](CCCCNC(=O)COCCOCCNC(=O)COCCOCCNC(=O)CC[C@H](NC(=O)CCCCCCCCCCCCCCCCC(=O)O)C(=O)O)NC(=O)[C@H](CO)NC(=O)[C@H](CC(=O)O)NC(=O)[C@H](CC(C)C)NC(=O)[C@](C)(Cc1ccccc1)NC(=O)[C@H](CCCCN)NC(=O)[C@H](CO)NC(=O)[C@@H](NC(=O)[C@H](CC(=O)O)NC(=O)[C@H](CO)NC(=O)[C@@H](NC(=O)[C@H](Cc1ccccc1)NC(=O)[C@@H](NC(=O)CNC(=O)[C@H](CCC(N)=O)NC(=O)C(C)(C)NC(=O)[C@@H](N)Cc1c[nH]cn1)[C@@H](C)O)[C@@H](C)O)C(C)C)C(C)C)C(=O)N[C@@H](C)C(=O)N[C@@H](CCC(=O)O)C(=O)NC(C)(C)C(=O)NCC(=O)O) [Peptide 148] |
| 4590 | 22.6 |  | H[Aib]QGTFTSDVSK[αMeF]LDSK([AEEA-AEEA-γGlu-C18 diacid])RAQDFVRWLASRGI-OH (N-terminus assumed; SMILES CC[C@H](C)[C@H](NC(=O)CNC(=O)[C@H](CCCNC(=N)N)NC(=O)[C@H](CO)NC(=O)[C@H](C)NC(=O)[C@H](CC(C)C)NC(=O)[C@H](Cc1c[nH]c2ccccc12)NC(=O)[C@H](CCCNC(=N)N)NC(=O)[C@@H](NC(=O)[C@H](Cc1ccccc1)NC(=O)[C@H](CC(=O)O)NC(=O)[C@H](CCC(N)=O)NC(=O)[C@H](C)NC(=O)[C@H](CCCNC(=N)N)NC(=O)[C@H](CCCCNC(=O)COCCOCCNC(=O)COCCOCCNC(=O)CC[C@H](NC(=O)CCCCCCCCCCCCCCCCC(=O)O)C(=O)O)NC(=O)[C@H](CO)NC(=O)[C@H](CC(=O)O)NC(=O)[C@H](CC(C)C)NC(=O)[C@](C)(Cc1ccccc1)NC(=O)[C@H](CCCCN)NC(=O)[C@H](CO)NC(=O)[C@@H](NC(=O)[C@H](CC(=O)O)NC(=O)[C@H](CO)NC(=O)[C@@H](NC(=O)[C@H](Cc1ccccc1)NC(=O)[C@@H](NC(=O)CNC(=O)[C@H](CCC(N)=O)NC(=O)C(C)(C)NC(=O)[C@@H](N)Cc1c[nH]cn1)[C@@H](C)O)[C@@H](C)O)C(C)C)C(C)C)C(=O)O) [Peptide 145] |
|  |  | 601 | H[Aib]HGS[αMeF]TSDVSK[αMeF]LDSR[Aib]AK([AEEA-AEEA-γGlu-γGlu-C18 diacid])D[αMeF]VESIANT-NH2 [Peptide 250] |
| 2650 | 8.71 |  | H[Aib]QGTFTSDVSK[αMeF]LDSK([AEEA-AEEA-γGlu-C18 diacid])RAQDFVRWVVE[Aib]G-OH (N-terminus assumed; SMILES CC(C)C[C@H](NC(=O)[C@](C)(Cc1ccccc1)NC(=O)[C@H](CCCCN)NC(=O)[C@H](CO)NC(=O)[C@@H](NC(=O)[C@H](CC(=O)O)NC(=O)[C@H](CO)NC(=O)[C@@H](NC(=O)[C@H](Cc1ccccc1)NC(=O)[C@@H](NC(=O)CNC(=O)[C@H](CCC(N)=O)NC(=O)C(C)(C)NC(=O)[C@@H](N)Cc1c[nH]cn1)[C@@H](C)O)[C@@H](C)O)C(C)C)C(=O)N[C@@H](CC(=O)O)C(=O)N[C@@H](CO)C(=O)N[C@@H](CCCCNC(=O)COCCOCCNC(=O)COCCOCCNC(=O)CC[C@H](NC(=O)CCCCCCCCCCCCCCCCC(=O)O)C(=O)O)C(=O)N[C@@H](CCCNC(=N)N)C(=O)N[C@@H](C)C(=O)N[C@@H](CCC(N)=O)C(=O)N[C@@H](CC(=O)O)C(=O)N[C@@H](Cc1ccccc1)C(=O)N[C@H](C(=O)N[C@@H](CCCNC(=N)N)C(=O)N[C@@H](Cc1c[nH]c2ccccc12)C(=O)N[C@H](C(=O)N[C@H](C(=O)N[C@@H](CCC(=O)O)C(=O)NC(C)(C)C(=O)NCC(=O)O)C(C)C)C(C)C)C(C)C) [Peptide 149] |
| 43.5 | 15.3 |  | H[Aib]QGTFTSDVSK[αMeF]LDSK([AEEA-AEEA-γGlu-C18 diacid])RAQDFVRWLEA[Aib]G-OH (N-terminus assumed; SMILES CC(C)C[C@H](NC(=O)[C@H](Cc1c[nH]c2ccccc12)NC(=O)[C@H](CCCNC(=N)N)NC(=O)[C@@H](NC(=O)[C@H](Cc1ccccc1)NC(=O)[C@H](CC(=O)O)NC(=O)[C@H](CCC(N)=O)NC(=O)[C@H](C)NC(=O)[C@H](CCCNC(=N)N)NC(=O)[C@H](CCCCNC(=O)COCCOCCNC(=O)COCCOCCNC(=O)CC[C@H](NC(=O)CCCCCCCCCCCCCCCCC(=O)O)C(=O)O)NC(=O)[C@H](CO)NC(=O)[C@H](CC(=O)O)NC(=O)[C@H](CC(C)C)NC(=O)[C@](C)(Cc1ccccc1)NC(=O)[C@H](CCCCN)NC(=O)[C@H](CO)NC(=O)[C@@H](NC(=O)[C@H](CC(=O)O)NC(=O)[C@H](CO)NC(=O)[C@@H](NC(=O)[C@H](Cc1ccccc1)NC(=O)[C@@H](NC(=O)CNC(=O)[C@H](CCC(N)=O)NC(=O)C(C)(C)NC(=O)[C@@H](N)Cc1c[nH]cn1)[C@@H](C)O)[C@@H](C)O)C(C)C)C(C)C)C(=O)N[C@@H](CCC(=O)O)C(=O)N[C@@H](C)C(=O)NC(C)(C)C(=O)NCC(=O)O) [Peptide 147] |
